Reference: patent publication US20220041711A1 (NGM BIOPHARMACEUTICALS, published 2022)

Legend:
[1] = molecular target: T1, human LAIR-1-Fc (human, UniProt Q6GTX8 22-165); experiment: ELISA blocking: plate coated with 5 µg/mL human collagen type 1, antibody titrated, 1 µg/mL biotinylated human LAIR-1-Fc, streptavidin-HRP, OD650
T1 construct: also called biotinylated human LAIR-1-Fc; not shown: a Fc region
T1 chain: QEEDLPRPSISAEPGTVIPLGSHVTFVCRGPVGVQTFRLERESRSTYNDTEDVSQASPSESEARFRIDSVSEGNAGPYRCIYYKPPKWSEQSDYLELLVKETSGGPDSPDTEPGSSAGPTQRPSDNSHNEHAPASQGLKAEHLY

[2] = molecular target: T2, human LAIR-1-CD3ζ chimeric receptor on NFAT-GFP reporter cells (human, UniProt P20963 31-164, limits assumed); experiment: cell-based or functional assay
[3] = molecular target: T3, cyno LAIR-1-CD3ζ chimeric receptor on NFAT-GFP reporter cells (cynomolgus monkey; human); experiment: cell-based or functional assay
T3 sequence (P20963 other isoform, or with tags, fused parts or gaps mutant limits assumed): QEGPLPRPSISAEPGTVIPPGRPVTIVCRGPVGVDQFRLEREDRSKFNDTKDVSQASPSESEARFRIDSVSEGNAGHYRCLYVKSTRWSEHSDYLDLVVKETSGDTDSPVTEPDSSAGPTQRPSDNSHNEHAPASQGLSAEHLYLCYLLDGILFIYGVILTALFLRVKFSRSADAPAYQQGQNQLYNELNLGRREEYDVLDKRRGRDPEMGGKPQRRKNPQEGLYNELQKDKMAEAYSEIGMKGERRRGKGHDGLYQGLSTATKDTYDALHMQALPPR

[4] = molecular target: T4, human LAIR-1-ECD (human, UniProt Q6GTX8 22-165); experiment: SPR (Biacore) as in Example 2
T4 construct: Recombinant, expressed in mammalian cells; also called extracellular region of human LAIR-1
T4 chain: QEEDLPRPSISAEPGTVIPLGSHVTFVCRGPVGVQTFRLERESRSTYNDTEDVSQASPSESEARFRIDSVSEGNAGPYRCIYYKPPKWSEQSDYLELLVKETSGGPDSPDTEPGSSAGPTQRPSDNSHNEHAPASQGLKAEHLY

[5] = molecular target: T5, mouse LAIR-1 (form in the assay not stated) (mouse, UniProt Q8BG84 22-144, limits assumed); experiment: not described
T5 sequence: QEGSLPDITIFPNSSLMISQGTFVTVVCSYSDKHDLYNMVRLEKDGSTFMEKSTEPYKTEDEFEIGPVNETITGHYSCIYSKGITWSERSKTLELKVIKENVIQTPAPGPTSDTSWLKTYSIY

[6] = molecular target: T2, human LAIR-1-CD3ζ chimeric receptor on …; experiment: cell-based or functional assay; remark: listed apart in the source
[7] = molecular target: T3, cyno LAIR-1-CD3ζ chimeric receptor on …; experiment: cell-based or functional assay; remark: listed apart in the source
[8] = molecular target: T5, mouse LAIR-1 (form in the assay not …); experiment: SPR (Biacore)

Binder	IC50 (read off the curve) [1] [nM]	IC50 (read off the curve): % GFP+ human LAIR-1 reporter cells on coated MARCO-his [2] [nM]	IC50 (read off the curve): % GFP+ human LAIR-1 reporter cells on coated collagen 1 [2] [nM]	IC50 (read off the curve): % GFP+ human LAIR-1 reporter cells on coated collagen 4 [2] [nM]	IC50 (read off the curve): % GFP+ cyno LAIR-1 reporter cells on coated MARCO-his [3] [nM]	IC50 (read off the curve): % GFP+ cyno LAIR-1 reporter cells on coated collagen 1 [3] [nM]	IC50 (read off the curve): % GFP+ cyno LAIR-1 reporter cells on coated collagen 4 [3] [nM]	Kd [4] [nM]	koff [4] [s⁻¹]	kon [4] [M⁻¹ s⁻¹]	binding result [5]	IC50 (read off the curve): % GFP+ human LAIR-1 reporter cells on polymerized collagen matrix [6] [nM]	IC50 (read off the curve): % GFP+ cyno LAIR-1 reporter cells on polymerized collagen matrix [7] [nM]	Kd [8] [nM]	koff [8] [s⁻¹]	kon [8] [M⁻¹ s⁻¹]
humanized anti-LAIR-1 antibody Hz62G10.v1 (antibody, human IgG1, kappa, N297G, V domains shown, Humanized 62G10) VH: EVQLVESGGGLVKPGGSLRLSCAASGFTFNINAMNWVRQAPGKGLEWVARIRTKNNNFATYYADSVKDRFTISRDDSKNTLYLQMNSLKTEDTAVYYCVRGPYFDYWGQGTLVTVSS VL: DIQMTQSPSSLSASVGDRVTITCLASQTIGTWLAWYQQKPGKAPKLLIYAATSLADGVPSRFSGSGSGTDFTLTISSLQPEDFATYYCQQLYSTPYTFGGGTKVEIKR	~3	~0.05	~0.04	~0.03	~0.2	~0.4	~0.2	1.1	0.00079	700000	no binding	~0.03	~0.2			
ch43H2 (antibody, V domains shown, also called purified ch43H2) VH: EVQLVESGGGLVQPGRSLKVSCAASGFTFSNYGIHWIRQAPTKGLEWVASISPSGRSTYFRDSVKGRFTISRDNAKNTLYLQLDSLRSEDTATYYCATGINYSSFDYWGQGVMVTVSS VL: DIVMTQSPTSMSISVGDRVTMNCKASQNVGSHVDWYQQKTGQSPKLLISTASNRYTGVPDRFTGSGSGTDFTFTINNMQTEDLAVYYCMQSNSYPPTFGGGTKLELK														1.1	0.00057	530000
